How the values were obtained:
[1] = molecular target: T1, human OX40 on PG-Jurkat-hOX40-NF-κB cells (human, UniProt P43489 29-277); assay: cell-based or functional assay
T1 sequence (looked up): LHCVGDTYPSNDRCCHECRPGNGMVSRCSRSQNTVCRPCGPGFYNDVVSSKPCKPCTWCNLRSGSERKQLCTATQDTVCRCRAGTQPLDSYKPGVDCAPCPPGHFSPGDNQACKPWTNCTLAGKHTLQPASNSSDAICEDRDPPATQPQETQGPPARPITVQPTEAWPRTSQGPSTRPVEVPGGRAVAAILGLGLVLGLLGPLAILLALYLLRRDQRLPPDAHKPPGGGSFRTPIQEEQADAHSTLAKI

[2] = molecular target: T1, human OX40 on PG-Jurkat-hOX40-NF-κB …; assay: flow cytometry competition against OX40L-mFc on PG-Jurkat-OX40-NF-κB cells; reference is antibody KHK4083
Method: PG-Jurkat-OX40-NF-κB cells were resuspended in 1×PBS to achieve a density of 1×10⁷ cells/mL. […] PG-Jurkat-OX40-NF-κB cells were plated in sample wells, control wells, and blank wells at 50 μL/well, and the cell count was 5×10⁵ cells/well at this point. Antibody diluents at different concentrations were added to sample wells at 50 μL/well, and the mixture was mixed well. 50 μL of 1×PBS was added to control wells and blank wells. The 96-well V-bottom plate was incubated in a refrigerator at 4° C. for 5 min. […] After the incubation was complete, the 96-well V-bottom plate was taken out. The diluted ligand solution was added to sample wells and control wells at 50 μL/well as soon as possible, and the mixture was mixed well by pipetting. […] The 96-well V-bottom plate was incubated in a refrigerator at 4° C. for 50 min. The plate was washed with 1×PBS, and the supernatant was removed for further incubation.
Anti-mFc APC (Bioss, Cat. No.: BJ01138707) was diluted with 1×PBS at a ratio of 1:800, and 100 μL of the diluted anti-mFc APC was added to each well except for blank wells to resuspend the cells. The plate was incubated in the dark in a refrigerator at 4° C. for 30 min. After the incubation, the cells were washed with 1×PBS and finally resuspended in 1×PBS at 200 μL/well for flow cytometry analysis.

fold lower IC50 than antibody KHK4083 in blocking OX40L-mFc activation of OX40 signals (NF-κB luciferase reporter) [1]: 4.8 times | fold lower IC50 than antibody KHK4083 [2]: 2.8 times
B1: antibody M-KF (antibody, human IgG1, kappa, V domains shown)
VH: QVQLVESGGGVVQPGESLRLSCAASGFTFSSYGMHWVRQAPGKGLEWVAVIWEDGSNQYYADSVKGRFTISRDNSKNTLYLQMNSLRAEDTAVYYCAKDNQDTSPDVGIDYWGQGTLVTVSS
VL: DIQMTQSPSSLSASVGDRVTITCRASQNISPFLNWYQQKPGKAPKLLIYAAVGLQSGVPSRFSGSGSGTDFTLTISSLQPEDFATYYCQQYTDYPLTFGGGTKVEIKR
notes: also called anti-OX40 antibody
